Patent US20250032632A1 (published 2025)
Changes are numbered by the printed parent chain.

B1: F5P5B9 (antibody, V domains shown)
VH: QVQLKESGPGLVAPSQSLSITCTVSGFSLTNYGVNWVRQPPGKGLEWLGLIWGGGDTDYNSALKSRLSISKDNSKSQVFLKMETNSLQTDDTARYYCARDYYGFDYWGQGTTLTVSS
VL: DVLMTQTPLSLPVSLGDQASISCRSSQTIVHGTGNTYLEWYLQKPGQSPKLLIYKVSNRFSGVPDRFSGSGSGTDFTLKISRVEAEDLGVYYCFQGSHVPYTFGGGTKLEIKR
notes: Mouse monoclonal antibody
B2: F6B1P3D12 (mouse monoclonal anti-cMET antibody) (antibody, V domains shown)
VH: QVQLQQSGAELAKPGASVKMSCRASGYTFTSYWMHWVKQRPGQGLDWIGYIKPSTDNTEYNQKFKDKATLTADKSSSTAYMQLSSLTSEDSAVYYCARSYGNYPLMDYWGQGTSVTVSS
VL: QIVLTQSPAIMSASPGEKVTLTCSASSSVTSNYLYWYQQKPGSSPKLWIYSTSNLASGVPARFSGSGSGTSYSLTISSMEAEDAASYFCHQWSSYPPTFGSGTKLEIKR
notes: Mouse hybridoma antibody (ATCC PTA-125826); also called Mouse P3D12
B3: F6B1P1E2 (antibody, V domains shown)
VH: B2 VH with R23K, D46E, K52N, N57Y, S77T, A97V
VL: B2 VL with T30S, Q38H, A61V
notes: Mouse monoclonal antibody
B4: F6BP2D4 (antibody, V domains shown)
VH: B2 VH with R23K, D46E, K52N, N57Y, T58I, D73G, Y103F
VL: B2 VL with T30S, A61V
notes: Mouse monoclonal antibody
B5: ABF46 (antibody, V domains shown)
VH: EVKLVESGGGLVQPGGSLRLSCATSGFTFTDYYMSWVRQPPGKALEWLGFIRNKANGYTTEYSASVKGRFTISRDNSQSILYLQMDTLRAEDSATYYCARDNWFAYWGQGTLVTVSA
VL: DILMTQSPSSLTVSAGEKVTMSCKSSQSLLASGNQNNYLAWHQQKPGRSPKMLIIWASTRVSGVPDRFIGSGSGTDFTLTINSVQAEDLAVYYCQQSYSAPLTFGAGTKLELK
B6: G2ckc (humanized P3D12, VH-cdr + VL-cdr) (antibody, V domains shown)
VH: QVQLVQSGAEVKKPGASVKVSCKASGYTFTSYWMHWVKQAPGQGLDWIGYIKPSTDNTEYNQKFKDKATLTADKSTSTAYMELSSLRSEDTAVYYCARSYGNYPLMDYWGQGTTVTVSS
VL: QIVLTQSPATLSLSPGERATLSCSASSSVTSNYLYWYQQKPGSSPRLLIYSTSNLASGVPARFSGSGSGTSYTLTISRLEPEDFASYFCHQWSSYPPTFGSGTKLEIKR
notes: Humanized and isotype switched version of P3D12
B7: G2fkf (humanized P3D12, VH-fra + VL-fra) (antibody, V domains shown)
VH: B6 VH with V5Q, A40R, K67R, A68V, E82Q, S85N, R87I, T114S
VL: B6 VL with T10I, R46K, R78S, P81A, F84A
notes: as for B6
B8: G2fkv (humanized P3D12, VH-fra + VL-ven) (antibody, V domains shown)
VH: B6 VH with V5Q, A40R, K67R, A68V, E82Q, S85N, R87I, T114S
VL: B6 VL with L11M, L13A, A19V, L48W, L79M, F84A
notes: as for B6
B9: G2fkc (humanized P3D12, VH-fra + VL-cdr) (antibody, V domains shown)
VH: B6 VH with V5Q, A40R, K67R, A68V, E82Q, S85N, R87I, T114S
VL: B6 VL
notes: as for B6
B10: G2ckv (humanized P3D12, VH-cdr + VL-ven) (antibody, V domains shown)
VH: B6 VH
VL: B6 VL with L11M, L13A, A19V, L48W, L79M, F84A
notes: as for B6
B11: G2akc (humanized P3D12, VH-abb/sdr + VL-cdr) (antibody, V domains shown)
VH: B6 VH with I48M, N61A, K65Q, D66G, K67R, A68V
VL: B6 VL
notes: as for B6
B12: G2aka (humanized P3D12, VH-abb/sdr + VL-abb/sdr) (antibody, V domains shown)
VH: B6 VH with I48M, N61A, K65Q, D66G, K67R, A68V
VL: B6 VL with S24R, S27Q, S71D
notes: as for B6
B13: G2akf (humanized P3D12, VH-abb/sdr + VL-fra) (antibody, V domains shown)
VH: B6 VH with I48M, N61A, K65Q, D66G, K67R, A68V
VL: B6 VL with T10I, R46K, R78S, P81A, F84A
notes: as for B6
B14: G2vkv (humanized P3D12, VH-ven + VL-ven) (antibody, V domains shown)
VH: B6 VH with K12A, V20M, E82Q
VL: B6 VL with L11M, L13A, A19V, L48W, L79M, F84A
notes: as for B6
B15: G2akv (humanized P3D12, VH-abb/sdr + VL-ven) (antibody, V domains shown)
VH: B6 VH with I48M, N61A, K65Q, D66G, K67R, A68V
VL: B6 VL with L11M, L13A, A19V, L48W, L79M, F84A
notes: as for B6
B16: G2cka (humanized P3D12, VH-cdr + VL-abb/sdr) (antibody, V domains shown)
VH: B6 VH
VL: B6 VL with S24R, S27Q, S71D
notes: as for B6
B17: G2vkc (humanized P3D12, VH-ven + VL-cdr) (antibody, V domains shown)
VH: B6 VH with K12A, V20M, E82Q
VL: B6 VL
notes: as for B6
B18: G2vka (humanized P3D12, VH-ven + VL-abb/sdr) (antibody, V domains shown)
VH: B6 VH with K12A, V20M, E82Q
VL: B6 VL with S24R, S27Q, S71D
notes: as for B6
B19: G2vkf (humanized P3D12, VH-ven + VL-fra) (antibody, V domains shown)
VH: B6 VH with K12A, V20M, E82Q
VL: B6 VL with T10I, R46K, R78S, P81A, F84A
notes: as for B6
B20: G2fka (humanized P3D12, VH-fra + VL-abb/sdr) (antibody, V domains shown)
VH: B6 VH with V5Q, A40R, K67R, A68V, E82Q, S85N, R87I, T114S
VL: B6 VL with S24R, S27Q, S71D
notes: as for B6
B21: Chimeric P3D12 (antibody, V domains shown)
VH: B2 VH
VL: B2 VL
notes: Mouse P3D12 variable regions with human constant regions
B22: hD12-II (Antibody hD12 attached to the payload of chemical formula II, stochastic conjugation) (antibody, human IgG2, kappa)
heavy: QVQLVQSGAEVKKPGASVKVSCKASGYTFTSYWMHWVKQAPGQGLDWIGYIKPSTDNTEYNQKFKDKATLTADKSTSTAYMELSSLRSEDTAVYYCARSYGNYPLMDYWGQGTTVTVSSASTKGPSVFPLAPCSRSTSESTAALGCLVKDYFPEPVTVSWNSGALTSGVHTFPAVLQSSGLYSLSSVVTVPSSNFGTQTYTCNVDHKPSNTKVDKTVERKCCVECPPCPAPPVAGPSVFLFPPKPKDTLMISRTPEVTCVVVDVSHEDPEVQFNWYVDGVEVHNAKTKPREEQFNSTFRVVSVLTVVHQDWLNGKEYKCKVSNKGLPAPIEKTISKTKGQPREPQVYTLPPSREEMTKNQVSLTCLVKGFYPSDIAVEWESNGQPENNYKTTPPMLDSDGSFFLYSKLTVDKSRWQQGNVFSCSVMHEALHNHYTQKSLSLSPGK
light: QIVLTQSPAILSLSPGERATLSCSASSSVTSNYLYWYQQKPGSSPKLLIYSTSNLASGVPARFSGSGSGTSYTLTISSLEAEDAASYFCHQWSSYPPTFGSGTKLEIKRTVAAPSVFIFPPSDEQLKSGTASVVCLLNNFYPREAKVQWKVDNALQSGNSQESVTEQDSKDSTYSLSSTLTLSKADYEKHKVYACEVTHQGLSSPVTKSFNRGEC
modifications: payload of chemical formula II on one or more cysteine residues of the antibody at random positions (chain not stated); payload of chemical formula II (pyrrolobenzodiazepine toxin + linking group, maleimide) on one or more cysteine residues of the antibody at random positions
notes: also called hD12-vc-II
B23: hD12-IV (Antibody hD12 attached to the payload of chemical formula IV, stochastic conjugation) (antibody, human IgG2, kappa)
heavy: B22 heavy
light: B22 light
modifications: payload of chemical formula IV on one or more cysteine residues of the antibody at random positions (chain not stated); payload of chemical formula IV (pyrrolobenzodiazepine toxin + linking group, maleimide) on one or more cysteine residues of the antibody at random positions
notes: Antibody-drug conjugate; also called hD12-vc-IV
B24: hD12-XI (Antibody hD12 attached to the payload of chemical formula XI, stochastic conjugation) (antibody, human IgG2, kappa)
heavy: B22 heavy
light: B22 light
modifications: payload of chemical formula XI on one or more cysteine residues of the antibody at random positions (chain not stated); payload of chemical formula XI (pyrrolobenzodiazepine toxin + linking group, maleimide) on one or more cysteine residues of the antibody at random positions
notes: Antibody-drug conjugate; also called hD12-vc-XI
B25: hD12-VI (Antibody hD12 attached to the payload of chemical formula VI, stochastic conjugation) (antibody, human IgG2, kappa)
heavy: B22 heavy
light: B22 light
modifications: payload of chemical formula VI on one or more cysteine residues of the antibody at random positions (chain not stated); payload of chemical formula VI (pyrrolobenzodiazepine toxin + linking group, maleimide) on one or more cysteine residues of the antibody at random positions
notes: Antibody-drug conjugate; also called hD12-vc-VI
B26: hD12-VII (Antibody hD12 attached to the payload of chemical formula VII, stochastic conjugation) (antibody, human IgG2, kappa)
heavy: B22 heavy
light: B22 light
modifications: payload of chemical formula VII on one or more cysteine residues of the antibody at random positions (chain not stated); payload of chemical formula VII (pyrrolobenzodiazepine toxin + linking group, maleimide) on one or more cysteine residues of the antibody at random positions
notes: Antibody-drug conjugate; also called hD12-vc-VII

Biological target: T1, rat cMET (ELISA antigen) (rat, UniProt P97523 25-935, limits assumed)
T1 construct: also called rMET
T1 sequence (P97523 25-935 limits assumed): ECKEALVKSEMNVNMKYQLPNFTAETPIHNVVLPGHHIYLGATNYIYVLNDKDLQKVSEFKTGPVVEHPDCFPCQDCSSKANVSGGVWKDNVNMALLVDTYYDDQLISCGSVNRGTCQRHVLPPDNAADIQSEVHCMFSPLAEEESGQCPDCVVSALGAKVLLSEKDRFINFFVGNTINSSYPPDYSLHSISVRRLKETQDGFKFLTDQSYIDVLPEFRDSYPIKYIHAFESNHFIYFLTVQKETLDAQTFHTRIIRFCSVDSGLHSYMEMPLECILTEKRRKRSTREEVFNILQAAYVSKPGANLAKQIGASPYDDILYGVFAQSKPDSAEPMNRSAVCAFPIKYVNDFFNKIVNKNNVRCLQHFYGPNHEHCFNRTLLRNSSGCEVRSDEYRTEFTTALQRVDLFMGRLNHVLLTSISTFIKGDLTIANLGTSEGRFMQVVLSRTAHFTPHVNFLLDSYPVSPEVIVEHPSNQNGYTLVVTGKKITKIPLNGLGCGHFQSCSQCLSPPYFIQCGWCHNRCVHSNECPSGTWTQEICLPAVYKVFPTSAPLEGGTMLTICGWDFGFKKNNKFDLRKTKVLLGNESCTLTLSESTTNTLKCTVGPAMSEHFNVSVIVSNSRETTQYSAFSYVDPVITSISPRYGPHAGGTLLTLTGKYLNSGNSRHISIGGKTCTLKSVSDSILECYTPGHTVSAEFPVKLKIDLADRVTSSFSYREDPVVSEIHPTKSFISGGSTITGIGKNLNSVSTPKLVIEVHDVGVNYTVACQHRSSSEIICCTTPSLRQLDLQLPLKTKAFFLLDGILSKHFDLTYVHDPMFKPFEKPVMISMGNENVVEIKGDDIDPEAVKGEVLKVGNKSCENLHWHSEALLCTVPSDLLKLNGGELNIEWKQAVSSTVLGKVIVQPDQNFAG
Test: ELISA, cross-reactivity, rat cMET

B1: no binding.

Biological target: T2, human cMET-Fc fusion protein (extracellular domain of human cMET fused to human Fc) (human, UniProt P08581 25-932)
T2 construct: Mature cMET is cleaved into alpha and beta subunits; also called hMET-Fc; hMet-Fc
T2 sequence (P08581 25-932): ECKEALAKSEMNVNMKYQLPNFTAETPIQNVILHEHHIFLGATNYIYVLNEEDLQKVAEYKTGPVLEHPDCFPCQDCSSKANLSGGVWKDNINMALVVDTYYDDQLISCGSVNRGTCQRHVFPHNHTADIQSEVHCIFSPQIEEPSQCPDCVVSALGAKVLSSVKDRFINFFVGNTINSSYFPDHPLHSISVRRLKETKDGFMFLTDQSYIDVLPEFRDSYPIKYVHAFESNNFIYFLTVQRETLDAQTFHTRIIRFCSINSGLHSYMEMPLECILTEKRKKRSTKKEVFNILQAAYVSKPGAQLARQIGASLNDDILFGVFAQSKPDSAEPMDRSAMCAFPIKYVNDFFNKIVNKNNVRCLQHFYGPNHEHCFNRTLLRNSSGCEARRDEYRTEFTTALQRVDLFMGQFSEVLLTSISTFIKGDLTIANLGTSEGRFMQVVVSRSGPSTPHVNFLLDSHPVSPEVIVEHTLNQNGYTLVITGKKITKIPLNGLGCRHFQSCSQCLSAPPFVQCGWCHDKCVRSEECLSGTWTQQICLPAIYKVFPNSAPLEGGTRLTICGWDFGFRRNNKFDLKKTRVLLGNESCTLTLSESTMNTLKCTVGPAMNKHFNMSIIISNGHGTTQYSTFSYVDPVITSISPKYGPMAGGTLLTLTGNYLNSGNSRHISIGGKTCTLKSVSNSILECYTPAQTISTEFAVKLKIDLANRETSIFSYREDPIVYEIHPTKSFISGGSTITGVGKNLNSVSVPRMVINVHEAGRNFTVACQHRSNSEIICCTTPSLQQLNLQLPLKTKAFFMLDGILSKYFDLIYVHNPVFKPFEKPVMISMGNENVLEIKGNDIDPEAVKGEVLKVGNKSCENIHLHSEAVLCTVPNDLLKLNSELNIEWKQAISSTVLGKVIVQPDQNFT
Test: SPR with hMet-Fc

Point of comparison: B2, Kd 750 pM. Against it:
- B3 — within 1.5-fold, 890 pM
- B4 — 1.6-fold lower, 480 pM
- B5 — within 1.5-fold, 700 pM

Biological target: T1, rat cMET (ELISA antigen)
Test: ELISA on rat cMET, relative to parental P3D12

Point of comparison: B6, “ELISA rMET vs parental” value 2 fold vs parental. Against it:
- B7 — lower, 1.4 fold vs parental
- B8 — lower, 1.2 fold vs parental
- B9 — higher, 2.3 fold vs parental
- B10 — lower, 1 fold vs parental
- B11 — lower, 0.7 fold vs parental
- B12 — lower, 1.1 fold vs parental
- B13 — lower, 0.5 fold vs parental
- B14 — lower, 1.6 fold vs parental
- B15 — lower, 1.3 fold vs parental
- B16 — higher, 2.7 fold vs parental
- B17 — lower, 1.9 fold vs parental
- B18 — higher, 2.7 fold vs parental
- B19 — lower, 1 fold vs parental
- B20 — higher, 3.8 fold vs parental

Biological target: T2, human cMET-Fc fusion protein …
Test: SPR, hMET-Fc

Point of comparison: B2, Kd 900 pM. Against it:
- B21 — within 1.5-fold, 700 pM
- B6 — the same, 900 pM
- B7 — 2.2-fold lower, 400 pM
- B11 — within 1.5-fold, 700 pM
- B12 — the same, 900 pM
- B13 — 1.5-fold lower, 600 pM
- B16 — 2.2-fold lower, 400 pM
- B19 — 3-fold lower, 300 pM

Biological target: T3, Recombinant Human c-Met-10X His (human, UniProt P08581 25-932)
T3 construct: In-house reagent (Lot #140924TA); not shown: 10X His tag
T3 sequence (P08581 25-932 limits assumed): as the sequence (P08581 25-932) above
Test: ELISA, plate-bound human cMET (FIGS. 17A, 17B)
Text: Relative binding strength is indicated by luminescence (y-axis).

B22: binds.
B23: binds.
B24: binds.
B25: binds.
B26: binds.

Biological target: T4, rat cMET-Fc (rat, UniProt P97523 25-935)
T4 construct: Construct named only as rMET-Fc; also called rMET-Fc; not shown: Fc part
T4 sequence (P97523 25-935 limits assumed): as the sequence (P97523 25-935 limits assumed) above
Test: SPR, rMET-Fc

Point of comparison: B6, Kd 31000 pM. Against it:
- B2 — 1.9-fold lower, 16000 pM
- B21 — within 1.5-fold, 30000 pM
- B7 — within 1.5-fold, 30000 pM
- B11 — within 1.5-fold, 38000 pM
- B12 — within 1.5-fold, 26000 pM
- B13 — within 1.5-fold, 23000 pM
- B16 — within 1.5-fold, 29000 pM
- B19 — 3.9-fold lower, 8000 pM

Biological target: mouse cMET (ELISA antigen) (mouse, UniProt P16056 25-931, limits assumed)
Sequence (P16056 25-931 limits assumed): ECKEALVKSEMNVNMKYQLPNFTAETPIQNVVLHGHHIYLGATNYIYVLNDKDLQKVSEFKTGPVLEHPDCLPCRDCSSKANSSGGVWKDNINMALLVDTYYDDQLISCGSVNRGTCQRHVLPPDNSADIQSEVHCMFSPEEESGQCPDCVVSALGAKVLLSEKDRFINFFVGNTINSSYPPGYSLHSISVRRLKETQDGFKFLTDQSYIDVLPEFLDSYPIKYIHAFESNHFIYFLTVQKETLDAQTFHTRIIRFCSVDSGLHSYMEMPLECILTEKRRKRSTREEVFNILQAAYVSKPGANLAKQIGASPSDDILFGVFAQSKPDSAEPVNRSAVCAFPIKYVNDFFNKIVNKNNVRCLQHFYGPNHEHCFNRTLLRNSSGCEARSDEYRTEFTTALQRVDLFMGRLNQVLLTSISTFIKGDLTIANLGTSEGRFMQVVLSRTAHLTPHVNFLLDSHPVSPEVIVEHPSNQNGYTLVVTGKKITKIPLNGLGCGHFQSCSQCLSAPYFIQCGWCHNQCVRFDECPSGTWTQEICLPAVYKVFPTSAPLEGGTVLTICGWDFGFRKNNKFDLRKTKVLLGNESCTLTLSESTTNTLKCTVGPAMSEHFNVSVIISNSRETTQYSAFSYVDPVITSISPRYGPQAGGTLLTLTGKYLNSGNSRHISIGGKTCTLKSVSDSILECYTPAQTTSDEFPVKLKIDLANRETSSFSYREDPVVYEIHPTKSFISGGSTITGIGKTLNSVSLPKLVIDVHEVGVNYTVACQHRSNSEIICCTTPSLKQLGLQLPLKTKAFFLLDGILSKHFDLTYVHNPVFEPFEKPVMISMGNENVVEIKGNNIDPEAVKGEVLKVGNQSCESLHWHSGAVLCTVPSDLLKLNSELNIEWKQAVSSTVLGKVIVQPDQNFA
Test: ELISA, cross-reactivity, mouse cMET

B2: no binding.
B3: no binding.
B4: no binding.
B1: no binding.

Biological target: T5, human cMET (ELISA antigen) (human, UniProt P08581 25-932, limits assumed)
T5 construct: also called hMET
T5 sequence (P08581 25-932 limits assumed): as the sequence (P08581 25-932) above
Test: ELISA on human cMET, relative to parental P3D12

Point of comparison: B15, “ELISA hMET vs parental” value 1.6 fold vs parental. Against it:
- B6 — lower, 1 fold vs parental
- B7 — higher, 1.7 fold vs parental
- B8 — higher, 1.7 fold vs parental
- B9 — higher, 1.7 fold vs parental
- B10 — lower, 1.1 fold vs parental
- B11 — lower, 1.3 fold vs parental
- B12 — lower, 0.9 fold vs parental
- B13 — lower, 1 fold vs parental
- B14 — the same, 1.6 fold vs parental
- B16 — lower, 1.3 fold vs parental
- B17 — lower, 1.1 fold vs parental
- B18 — lower, 0.9 fold vs parental
- B19 — lower, 1.1 fold vs parental
- B20 — higher, 1.8 fold vs parental
